Laboratory results published in publication PMC12394151 (2025).

Experiments:
Assay in all cases: BLI
GP01-Fc = GP01-Fc (llama (Lama glama))
GP20-Fc = GP20-Fc (llama (Lama glama))
GP11-Fc = GP11-Fc (llama (Lama glama))
GP13-Fc = GP13-Fc (llama (Lama glama))

B1: recombinant human gp130 with His-tag (Acro, ILT-H52H2) (receptor)
chain: ELLDPCGYISPESPVVQLHSNFTAVCVLKEKCMDYFHVNANYIVWKTNHFTIPKEQYTIINRTASSVTFTDIASLNIQLTCNILTFGQLEQNVYGITIISGLPPEKPKNLSCIVNEGKKMRCEWDGGRETHLETNFTLKSEWATHKFADCKAKRDTPTSCTVDYSTVYFVNIEVWVEAENALGKVTSDHINFDPVYKVKPNPPHNLSVINSEELSSILKLTWTNPSIKSVIILKYNIQYRTKDASTWSQIPPEDTASTRSSFTVQDLKPFTEYVFRIRCMKEDGKGYWSDWSEEASGITYEDRPSKAPSFWYKIDPSHTQGYRTVQLVWKTLPPFEANGKILDYEVTLTRWKSHLQNYTVNATKLTVNLTNDRYLATLTVRNLVGKSDAAVLTIPACDFQATHPVMDLKAFPKDNMLWVEWTTPRESVKKYILEWCVLSDKAPCITDWQQEDGTVHRTYLRGNLAESKCYLITVTPVYADGPGSPESIKAYLKQAPPSKGPTVRTKKVGKNEAVLEWDQLPVDVQNGFIRNYTIFYRTIIGNETAVNVDSSHTEYTLSSLTSDTLYMVRMAAYTDEGGKDGPEFTFTTPKFAQGEIE
**Q.** Which koff (GP01-Fc) does the source give for B1 here?
**A.** 0.00223 s⁻¹

**Q.** And the koff (GP20-Fc)?
**A.** 0.000737 s⁻¹

**Q.** And the koff (GP11-Fc)?
**A.** 0.00042 s⁻¹

**Q.** And the koff (GP13-Fc)?
**A.** 0.00288 s⁻¹
